Laboratory results: patent US5674838A, “Hirudin derivatives and a process for their preparation” (Hoechst Aktiengesellschaft, priority 1994, dated 1997)
Each block holds one molecule with its values, some of them ahead of it.

Columns and labels:
Rhesus monkeys = assay: anticoagulatory effect following intravenous administration to Rhesus monkeys; type: in vivo
Description: Amino acid analysis of the product conforms with the composition which is to be expected from the amino acid sequence. Edman sequence analysis indicates 2 N-terminal amino acid residues Leu(1) and Asn(37).

[1] = target: recombinantly obtained desulfato-Tyr63 hirudin (leech (Hirudo medicinalis), made recombinantly in yeast cells)

Molecule: (hirudin 1-63)-Thr(64)-Arg(65)-Arg(66)--OH [Example 3]
anticoagulatory effect (activity compared with starting hirudin) (Rhesus monkeys; intravenous administration to Rhesus monkeys (1 mg/kg), test conditions per Jurgens 1952): virtually identical to that of the starting hirudin

transpeptidation at Tyr63; composition of the crude product by analytical HPLC [1]: 65.2%
Molecule: chymotrypsin (Merck, Darmstadt) (enzyme)

B1: (hirudin 1-36)-Thr, (hirudin 37-65) (protein)
chain 1: LTYTDCTESGQNLCLCEGSNVCGQGNKCILGSDGEKT
chain 2: NQCVTGEGTPKPQSHNDGDFEEIPEEYLQ
anticoagulatory effect (activity compared with starting hirudin) (Rhesus monkeys; intravenous administration to Rhesus monkeys, dose not given): virtually identical to that of the starting hirudin
